Patent publication US20210340231A1 (FAPON BIOTECH, published 2021)
Where a chain is given by its changes, count along the chain named.

B1: Mutation 1-1 (antibody, V domains shown)
VH: EVQLQQSGAELVKPGASVKLSCTASGFNLKDYYMHWMKQRTEQGLDWIGRIDPEDAETKYAPEFQGKATITADTSSNTAYLQLSTLTSEDTAVYYCARYYSSYLPFVYWGQGTLVTASA
VL: DVVMTQTPLSLSVSLGDQASISCRSSQSILYSNRHTYLHWYLQKPGQSPKLLIFQLSNRFSGVPDRFSGSGSGTDFTLKINRVEAEDLGVYFCSQSTHLPYTFGSGTKLEIKR
notes: built as for Mutation 1
B2: Mutation 1-30 (antibody, V domains shown)
VH: B1 VH with L29I, Y33F, K59R
VL: B1 VL with L30I, L99I, Y101F
notes: built as for Mutation 1
B3: Mutation 1-36 (antibody, V domains shown)
VH: B1 VH with A56G, K59R
VL: B1 VL with L30I, L99I
notes: built as for Mutation 1
B4: Mutation 1-12 (antibody, V domains shown)
VH: B1 VH with Y33F, A56G
VL: B1 VL
notes: built as for Mutation 1
B5: Mutation 1-2 (antibody, V domains shown)
VH: B1 VH with L29I, Y33F, A56G, K59R, L104V
VL: B1 VL with I29L, L30I, L56V, L99I, Y101F
notes: built as for Mutation 1
B6: Mutation 1-28 (antibody, V domains shown)
VH: B1 VH with Y33F
VL: B1 VL with I29L, L30I, Y101F
notes: built as for Mutation 1
B7: Mutation 1-27 (antibody, V domains shown)
VH: B1 VH with L29I, K59R, L104I
VL: B1 VL with I29L, L30I, L56I, L99I
notes: built as for Mutation 1
B8: Mutation 1-22 (antibody, V domains shown)
VH: B1 VH with L29I, Y33F, A56G, K59R, L104V
VL: B1 VL with L30I, L56V
notes: built as for Mutation 1
B9: Mutation 1-17 (antibody, V domains shown)
VH: B1 VH with K59R
VL: B1 VL with L30I, L99I
notes: built as for Mutation 1
B10: Mutation 1-41 (antibody, V domains shown)
VH: B1 VH with L29I, A56G, K59R, L104I
VL: B1 VL with L56I, L99I
notes: built as for Mutation 1
B11: Mutation 1-20 (antibody, V domains shown)
VH: B1 VH with Y33F, A56G, L104V
VL: B1 VL with I29L, L30I, L56V, L99I, Y101F
notes: built as for Mutation 1
B12: Mutation 1-13 (antibody, V domains shown)
VH: B1 VH with K59R, L104V
VL: B1 VL with I29L, L30I, L56V, Y101F
notes: built as for Mutation 1
B13: Mutation 1-33 (antibody, V domains shown)
VH: B1 VH with L104V
VL: B1 VL with I29L, L30I, L56V, L99I, Y101F
notes: built as for Mutation 1
B14: Mutation 1-40 (antibody, V domains shown)
VH: B1 VH with A56G, L104I
VL: B1 VL with I29L, L56I, Y101F
notes: built as for Mutation 1
B15: Mutation 1-32 (antibody, V domains shown)
VH: B1 VH with Y33F, A56G, K59R, L104I
VL: B1 VL with L56I, Y101F
notes: built as for Mutation 1
B16: Mutation 1-7 (antibody, V domains shown)
VH: B1 VH with L29I, K59R, L104I
VL: B1 VL with I29L, L30I, L56I
notes: built as for Mutation 1
B17: Mutation 1-43 (antibody, V domains shown)
VH: B1 VH with K59R, L104V
VL: B1 VL with L30I, L56V, L99I
notes: built as for Mutation 1
B18: Mutation 1-3 (antibody, V domains shown)
VH: B1 VH with L29I, A56G
VL: B1 VL with I29L, L99I
notes: built as for Mutation 1
B19: Mutation 1-47 (antibody, V domains shown)
VH: B1 VH with L104V
VL: B1 VL with I29L, L56V, Y101F
notes: built as for Mutation 1
B20: Mutation 1-35 (antibody, V domains shown)
VH: B1 VH with L29I, K59R
VL: B1 VL with L30I
notes: built as for Mutation 1
B21: Mutation 1-39 (antibody, V domains shown)
VH: B1 VH with Y33F, A56G, K59R, L104V
VL: B1 VL with I29L, L30I, L56V
notes: built as for Mutation 1
B22: Mutation 1-49 (antibody, V domains shown)
VH: B1 VH with L29I, K59R
VL: B1 VL with L99I
notes: built as for Mutation 1
B23: Mutation 1-16 (antibody, V domains shown)
VH: B1 VH with Y33F, K59R, L104I
VL: B1 VL with I29L, L56I
notes: built as for Mutation 1
B24: Mutation 1-29 (antibody, V domains shown)
VH: B1 VH with A56G, L104V
VL: B1 VL with I29L, L56V
notes: built as for Mutation 1
B25: Mutation 1-8 (antibody, V domains shown)
VH: B1 VH with Y33F, A56G, K59R
VL: B1 VL with I29L, L30I, Y101F
notes: built as for Mutation 1
B26: Mutation 1-26 (antibody, V domains shown)
VH: B1 VH with L29I, Y33F, A56G
VL: B1 VL with Y101F
notes: built as for Mutation 1
B27: Mutation 1-46 (antibody, V domains shown)
VH: B1 VH with Y33F, K59R, L104I
VL: B1 VL with I29L, L30I, L56I, L99I, Y101F
notes: built as for Mutation 1
B28: Mutation 1-51 (antibody, V domains shown)
VH: B1 VH with A56G, K59R
VL: B1 VL with I29L, L30I
notes: built as for Mutation 1
B29: Mutation 1-9 (antibody, V domains shown)
VH: B1 VH with A56G, L104I
VL: B1 VL with I29L, L56I, L99I
notes: built as for Mutation 1
B30: Mutation 1-45 (antibody, V domains shown)
VH: B1 VH with L29I, A56G, L104V
VL: B1 VL with I29L, L30I, L56V, L99I, Y101F
notes: built as for Mutation 1
B31: Mutation 1-48 (antibody, V domains shown)
VH: B1 VH with L29I, Y33F, A56G, K59R, L104I
VL: B1 VL with L30I, L56I
notes: built as for Mutation 1
B32: Mutation 1-42 (antibody, V domains shown)
VH: B1 VH with Y33F, A56G
VL: B1 VL with I29L
notes: built as for Mutation 1
B33: Mutation 1-10 (antibody, V domains shown)
VH: B1 VH with L29I, Y33F, K59R
VL: B1 VL with L30I
notes: built as for Mutation 1
B34: Mutation 1-19 (antibody, V domains shown)
VH: B1 VH with L29I, A56G, K59R
VL: B1 VL with I29L, L30I, L99I, Y101F
notes: built as for Mutation 1
B35: Mutation 1-25 (antibody, V domains shown)
VH: B1 VH with A56G, K59R, L104I
VL: B1 VL with L30I, L56I
notes: built as for Mutation 1
B36: Mutation 1-15 (antibody, V domains shown)
VH: B1 VH with L29I, A56G, K59R, L104V
VL: B1 VL with L30I, L56V, L99I
notes: built as for Mutation 1
B37: Mutation 1-5 (antibody, V domains shown)
VH: B1 VH with A56G, K59R, L104I
VL: B1 VL with L30I, L56I, L99I, Y101F
notes: built as for Mutation 1
B38: Mutation 1-21 (antibody, V domains shown)
VH: B1 VH
VL: B1 VL with I29L, Y101F
notes: built as for Mutation 1

Biological target: T1, CTNI quality control recombinant protein (PK2-CTNI-1, 170120, produced by the applicant) (human, UniProt P19429 2-210, limits assumed)
T1 construct: also called cardiac troponin I
Assay: AMC sensor kinetics, antibody captured, cTnI analyte
Description: Using the AMC sensor, the purified antibody was diluted with PBST to 10 μg/ml, and the CTNI quality control recombinant protein (PK2-CTNI-1, 170120, produced by the applicant) was serially diluted with PBST to 400 nmol/ml, 200 nmol/ml, 100 nmol/ml, 50 nmol/ml, 25 nmol/ml, 12.5 nmol/ml, 6.25 nmol/ml, and 0 nmol/ml.

T1 sequence (P19429 2-210 limits assumed): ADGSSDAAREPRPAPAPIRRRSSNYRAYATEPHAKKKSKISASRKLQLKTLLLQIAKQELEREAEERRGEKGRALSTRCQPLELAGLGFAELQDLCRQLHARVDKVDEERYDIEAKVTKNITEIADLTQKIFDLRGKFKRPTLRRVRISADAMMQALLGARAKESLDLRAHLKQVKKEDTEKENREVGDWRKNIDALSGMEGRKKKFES

| Kd [nM] | koff [s⁻¹] | kon [M⁻¹ s⁻¹] | Binder |
| --- | --- | --- | --- |
| 0.865 | 0.000311 | 359000 | B1 |
| 0.669 | 0.000362 | 541000 | B2 |
| 0.809 | 0.000452 | 559000 | B3 |
| 0.834 | 0.000258 | 309000 | B4 |
| 0.623 | 0.000268 | 430000 | B5 |
| 0.189 | 0.000101 | 536000 | B6 |
| 0.85 | 0.000844 | 993000 | B7 |
| 0.725 | 0.000215 | 297000 | B8 |
| 0.722 | 0.000565 | 782000 | B9 |
| 0.723 | 0.000393 | 544000 | B10 |
| 0.945 | 0.000158 | 167000 | B11 |
| 0.806 | 0.000251 | 311000 | B12 |
| 0.986 | 0.000881 | 894000 | B13 |
| 0.818 | 0.000164 | 200000 | B14 |
| 0.509 | 8.4e-05 | 165000 | B15 |
| 0.804 | 0.00056 | 697000 | B16 |
| 0.651 | 7.75e-05 | 119000 | B17 |
| 0.676 | 0.000122 | 181000 | B18 |
| 0.81 | 0.000507 | 626000 | B19 |

| Kd [nM] | koff [s⁻¹] | kon [M⁻¹ s⁻¹] | Binder |
| --- | --- | --- | --- |
| 0.574 | 0.000276 | 480000 | B20 |
| 0.756 | 0.000469 | 620000 | B21 |
| 0.538 | 0.000298 | 553000 | B22 |
| 0.662 | 0.000101 | 152000 | B23 |
| 0.698 | 0.000115 | 165000 | B24 |
| 0.303 | 2.58e-05 | 85100 | B25 |
| 0.692 | 0.00023 | 333000 | B26 |
| 0.723 | 0.00027 | 373000 | B27 |
| 0.765 | 7.54e-05 | 98600 | B28 |
| 0.866 | 9.18e-05 | 106000 | B29 |
| 0.168 | 3.24e-05 | 193000 | B30 |
| 0.956 | 0.00065 | 680000 | B31 |
| 0.347 | 0.00018 | 520000 | B32 |
| 0.922 | 0.000413 | 448000 | B33 |
| 0.487 | 0.000191 | 393000 | B34 |
| 0.97 | 0.000659 | 679000 | B35 |
| 0.917 | 0.000245 | 267000 | B36 |
| 0.623 | 0.0001 | 161000 | B37 |
| 0.676 | 0.000477 | 705000 | B38 |
